Data from patent US20230201308A1, “TREATMENT OF CORONAVIRUS INFECTION WITH […]” (Eiger Biopharmaceuticals, Inc., priority 2020, published 2023).
Like-named read-outs stand apart in the source and are kept apart here.

Test system: SARS-CoV-2
[1] = High risk population, Brazil, N = 698
[2] = High risk population, Brazil, N = 698 vs placebo N = 827
[3] = ITT population (Table 20), n=916 vs placebo 1003
[4] = ITT preliminary, n=916 vs placebo 1020

B1: pegylated interferon lambda-1a (protein)
chain: MKPTTTGKGCHIGRFKSLSPQELASFKKARDALEESLKLKNWSCSSPVFPGNWDLRLLQVRERPVALEAELALTLKVLEAAAGPALEDVLDQPLHTLHHILSQLQACIQPQPTAGPRPRGRLHHWLHRLQEAPKKESAGCLEASVTFNLFRLLTRDLKYVADGNLSLRTSTHPEST
modifications: PEG
notes: 180 mcg subcutaneous injection
Hospitalization or ER (any duration) for COVID-19: total [1]: 76 | Hospitalization or ER >6 h for COVID-19: percentage [1]: (3.2%) | Hospitalization or ER >6 h for COVID-19: total [1]: 22 | Mechanical ventilation: percentage [1]: (0.6%) | Mechanical ventilation: total [1]: 4 | All cause ER visit >6 h, hospitalization, or death: Pr (Superiority) [2]: 0.981 | All cause ER visit >6 h, hospitalization, or death: RR (95% CrI), estimated treatment effect [2]: 0.64 (0.42, 0.97) | All cause ER visit, hospitalization, or death: Pr (Superiority) [2]: 0.883 | All cause ER visit, hospitalization, or death: RR (95% CrI), estimated treatment effect [2]: 0.86 (0.68, 1.10) | All cause death or hospitalization due to COVID-19: Pr (Superiority) [2]: 0.924 | All cause death or hospitalization due to COVID-19: RR (95% CrI), estimated treatment effect [2]: 0.69 (0.41, 1.14) | Days of hospitalization: MD (95% CrI), estimated treatment effect [2]: −1.39 (−4.38, 1.20) | Days of hospitalization: Pr (Superiority) [2]: 0.8509 | Days on mechanical ventilation: MD (95% CrI), estimated treatment effect [2]: −4.47 (−6.89, 3.09) | Days on mechanical ventilation: Pr (Superiority) [2]: 0.9052 | Days to death for COVID-19: HR (95% CrI), estimated treatment effect [2]: 0.23 (0.01, 1.79) | Days to death for COVID-19: Pr (Superiority) [2]: 0.9080 | Days to hospitalization for COVID-19: HR (95% CrI), estimated treatment effect [2]: 0.58 (0.33, 0.98) | Days to hospitalization for COVID-19: Pr (Superiority) [2]: 0.9780 | Days to hospitalization or ER visit >6 h for COVID-19: HR (95% CrI), estimated treatment effect [2]: 0.47 (0.28, 0.76) | Days to hospitalization or ER visit >6 h for COVID-19: Pr (Superiority) [2]: 0.9992 | Days to hospitalization or death for COVID-19: HR (95% CrI), estimated treatment effect [2]: 0.62 (0.35, 1.05) | Days to hospitalization or death for COVID-19: Pr (Superiority) [2]: 0.9610 | Days to recovery: HR (95% CrI), estimated treatment effect [2]: 0.93 (0.83, 1.04) | Days to recovery: Pr (Superiority) [2]: 0.8862 | Death due to COVID-19: Pr (Superiority) [2]: 0.845 | Death due to COVID-19: RR (95% CrI), estimated treatment effect [2]: 0.42 (0.05, 2.08) | Death or hospitalization due to COVID-19: Pr (Superiority) [2]: 0.961 | Death or hospitalization due to COVID-19: RR (95% CrI), estimated treatment effect [2]: 0.63 (0.37, 1.05) | Hospitalization for COVID-19 (excluding those resulting in death): Pr (Superiority) [2]: 0.928 | Hospitalization for COVID-19 (excluding those resulting in death): RR (95% CrI), estimated treatment effect [2]: 0.67 (0.39, 1.14) | Hospitalization or ER (any duration) for COVID-19: Pr (Superiority) [2]: 0.991 | Hospitalization or ER (any duration) for COVID-19: RR (95% CrI), estimated treatment effect [2]: 0.72 (0.56, 0.95) | Hospitalization or ER >6 h for COVID-19: Pr (Superiority) [2]: 0.999 | Hospitalization or ER >6 h for COVID-19: RR (95% CI), estimated treatment effect [2]: 0.49 (0.30, 0.78) | Mechanical ventilation: Pr (Superiority) [2]: 0.717 | Mechanical ventilation: RR (95% CrI), estimated treatment effect [2]: 0.72 (0.21, 2.21) | All cause ER visit >6 h, hospitalization, or death, % of patients [3]: (3.7%) | All cause ER visit >6 h, hospitalization, or death, Pr (Superiority) [3]: 0.987 | All cause ER visit >6 h, hospitalization, or death, RR (95% CrI) vs placebo [3]: 0.64 (0.42, 0.95) | All cause ER visit, hospitalization, or death, % of patients [3]: (13.5%) | All cause ER visit, hospitalization, or death, Pr (Superiority) [3]: 0.831 | All cause ER visit, hospitalization, or death, RR (95% CrI) vs placebo [3]: 0.90 (0.72, 1.12) | All cause death or hospitalization due to COVID-19, % of patients [3]: (2.6%) | All cause death or hospitalization due to COVID-19, RR (95% CrI) vs placebo [3]: 0.66 (0.40, 1.07) | Days of hospitalization, IRR (95% CrI) vs placebo [3]: −1.02 (−3.86, 1.37) | Days on mechanical ventilation, IRR (95% CrI) vs placebo [3]: −4.47 (−6.89, 3.09) | Days to death for COVID-19, HR (95% CrI) vs placebo [3]: 0.22 (0.01, 1.64) | Days to hospitalization for COVID-19, HR (95% CrI) vs placebo [3]: 0.57 (0.33, 0.95) | Days to hospitalization or ER visit >6 h for COVID-19, HR (95% CrI) vs placebo [3]: 0.47 (0.29, 0.73) | Days to hospitalization or ER visit >6 h for COVID-19, Pr (Superiority) [3]: 0.999 | Days to hospitalization or death for COVID-19, HR (95% CrI) vs placebo [3]: 0.59 (0.35, 1.00) | Days to recovery, HR (95% CrI) vs placebo [3]: 0.94 (0.85, 1.05) | Death due to COVID-19, % of patients [3]: (0.1%) | Death due to COVID-19, RR (95% CrI) vs placebo [3]: 0.40 (0.05, 1.95) | Death or hospitalization due to COVID-19, % of patients [3]: (2.4%) | Death or hospitalization due to COVID-19, RR (95% CrI) vs placebo [3]: 0.61 (0.36, 0.99) | Hospitalization or ER (any duration) for COVID-19, % of patients [3]: (10.8%) | Hospitalization or ER (any duration) for COVID-19, Pr (Superiority) [3]: 0.981 | Hospitalization or ER (any duration) for COVID-19, RR (95% CrI) vs placebo [3]: 0.78 (0.61, 0.99) | Hospitalization or ER >6 h for COVID-19, % of patients [3]: (2.7%) | Hospitalization or ER >6 h for COVID-19, Pr (Superiority) [3]: 0.999 | Hospitalization or ER >6 h for COVID-19, RR (95% CI) vs placebo [3]: 0.49 (0.30, 0.76) | Mechanical ventilation, % of patients [3]: (0.4%) | Mechanical ventilation, RR (95% CrI) vs placebo [3]: 0.66 (0.20, 2.03) | Days to hospitalization for COVID-19, IQR (ITT preliminary, n=916): 3.0 | Days to hospitalization for COVID-19, Mean (ITT preliminary, n=916): 5.10 | Days to hospitalization for COVID-19, Median (ITT preliminary, n=916): 4.0 | Days to hospitalization or ER visit ≥6 h for COVID-19, IQR (ITT preliminary, n=916): 3.0 | Days to hospitalization or ER visit ≥6 h for COVID-19, Mean (ITT preliminary, n=916): 5.8 | Days to hospitalization or ER visit ≥6 h for COVID-19, Median (ITT preliminary, n=916): 4.0 | Days until death due to COVID-19, IQR (ITT preliminary, n=916): 16.0 | Days until death due to COVID-19, Mean (ITT preliminary, n=916): 22 | Days until death due to COVID-19, Median (ITT preliminary, n=916): 22.0 | Any cause Death, % of patients (ITT preliminary, n=916, 28 days): (0.3%) | ER visits over 6 hrs, % of patients [4]: 0.7% | Relative Reduction in Risk, Deaths [4]: 0.72 | Relative Reduction in Risk, ER visits over 6 hrs [4]: 0.68 | Relative Reduction in Risk, Hospitalizations [4]: 0.43 | Relative Reduction in Risk, Hospitalizations or ER visits over 6 hrs [4]: 0.50 | Death due to COVID-19, RR (95% CrI) vs placebo (ITT preliminary, n=916 vs placebo 1020, 28 days): 0.40 (0.05, 2.00)
